From the supplement of paper PMC10724198
± gives the standard deviation of the averaged measurements.

Tests used:
[1] = tested on: Saccharomyces cerevisiae; test: protein stability index of tFT-peptide fusion (C-terminal peptide) (PSI (0-1 scale)); higher = more stable (slower turnover)
Method: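 MPS profiling in S. cerevisiae of the tFT-X12 degron library: putative degron peptides plus stable controls, 12 aa, fused to the C-terminus of a sfGFP-mCherry timer. Cells are FACS-sorted into 8 mCherry/sfGFP bins and deep-sequenced. PSI runs from 0 (unstable) to 1 (stable). Backgrounds are wild type, das1Δ and doa10Δ at 30 °C, and wild type, das1Δ, cdc34-1 and cdc53-1 at 37 °C; 2-3 technical replicates each.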

[2] = tested on: Saccharomyces cerevisiae; test: as above; settings: genetic background: wild type; temperature: 30 C
[3] = genetic background: cdc34-1, temperature: 37 C
[4] = genetic background: cdc53-1, temperature: 37 C
[5] = genetic background: das1 deletion, temperature: 30 C
[6] = genetic background: das1 deletion, temperature: 37 C
[7] = genetic background: doa10 deletion, temperature: 30 C
[8] = genetic background: wild type, temperature: 30 C
[9] = genetic background: wild type, temperature: 37 C
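Further: PSI is a weighted mean of sequencing reads over stability bins, variants kept only with over 10 reads, mCherry proximal and sfGFP distal, peptide attached via GGGS linker.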

| Sequence | protein stability index [1, 3] | protein stability index [1, 4] | protein stability index [1, 5] | protein stability index [1, 6] | protein stability index [1, 7] | protein stability index [1, 8] | protein stability index [1, 9] | protein stability index [2] |
| --- | --- | --- | --- | --- | --- | --- | --- | --- |
| ISSAGHNIRFLA | 0.599 ± 0.052 | 0.698 ± 0.022 | 0.658 ± 0.025 | 0.715 ± 0.008 | 0.107 ± 0.025 | 0.129 ± 0.034 | 0.21 ± 0.018 | 0.23 ± 0.052 |
| CPICDFLFLALF | 0.565 ± 0.021 | 0.599 ± 0.064 | 0.483 ± 0.037 | 0.651 ± 0.022 | 0.469 ± 0.023 | 0.424 ± 0.028 | 0.598 ± 0.03 | 0.424 ± 0.054 |
| SGLVAFSVCCRG | 0.4091 ± 0.00089 | 0.449 ± 0.036 | 0.301 ± 0.039 | 0.5177 ± 0.0048 | 0.2625 ± 0.0015 | 0.308 ± 0.02 | 0.4862 ± 0.0037 | 0.433 ± 0.021 |
| FLWLCLLSLFFR | 0.454 ± 0.069 | 0.383 ± 0.035 | 0.436 ± 0.018 | 0.548 ± 0.017 | 0.547 ± 0.01 | 0.434 ± 0.0099 | 0.498 ± 0.031 | 0.481 ± 0.018 |
| RRRNQAAHLYSH | 0.617 ± 0.024 | 0.694 ± 0.044 | 0.67 ± 0.023 | 0.708 ± 0.0077 | 0.139 ± 0.022 | 0.159 ± 0.024 | 0.348 ± 0.011 | 0.268 ± 0.013 |
| LLFSVLLLGVGF | 0.425 ± 0.033 | 0.4723 ± 0.001 | 0.334 ± 0.023 | 0.5038 ± 0.0037 | 0.329 ± 0.024 | 0.324 ± 0.036 | 0.475 ± 0.0074 | 0.407 ± 0.035 |
| LLSGLVFVFVLG | 0.293 ± 0.01 | 0.405 ± 0.026 | 0.238 ± 0.04 | 0.445 ± 0.0072 | 0.204 ± 0.0027 | 0.236 ± 0.028 | 0.425 ± 0.014 | 0.318 ± 0.02 |
| VYEVELSVRVTV | 0.552 ± 0.03 | 0.56 ± 0.013 | 0.435 ± 0.026 | 0.548 ± 0.0089 | 0.404 ± 0.0053 | 0.447 ± 0.035 | 0.51 ± 0.0073 | 0.522 ± 0.063 |
| VGTGVGEGGGVV | 0.679 ± 0.029 | 0.72922 ± 0.00013 | 0.645 ± 0.016 | 0.73 ± 0.011 | 0.654 ± 0.018 | 0.649 ± 0.013 | 0.719 ± 0.022 | 0.711 ± 0.011 |
| PPVLAPHLCFPP | 0.685 ± 0.008 | 0.736 ± 0.0089 | 0.657 ± 0.0043 | 0.739 ± 0.015 | 0.673 ± 0.028 | 0.675 ± 0.019 | 0.713 ± 0.019 | 0.724 ± 0.018 |
| CTLVFLFFDLCS | 0.413 ± 0.015 | 0.533 ± 0.087 | 0.333 ± 0.042 | 0.497 ± 0.03 | 0.263 ± 0.014 | 0.304 ± 0.018 | 0.4904 ± 0.0021 | 0.405 ± 0.053 |
| SGRKNQRILGLY | 0.656 ± 0.1 | 0.7334 ± 0.0067 | 0.6488 ± 0.0054 | 0.731 ± 0.023 | 0.199 ± 0.029 | 0.221 ± 0.038 | 0.497 ± 0.011 | 0.301 ± 0.055 |
| RLRCRVLQWVWG | 0.617 ± 0.0085 | 0.693 ± 0.0084 | 0.557 ± 0.038 | 0.6562 ± 0.0012 | 0.352 ± 0.0078 | 0.385 ± 0.027 | 0.571 ± 0.0062 | 0.471 ± 0.035 |
| FIRLFLVSFFIS | 0.405 ± 0.048 | 0.451 ± 0.027 | 0.375 ± 0.019 | 0.567 ± 0.032 | 0.174 ± 0.013 | 0.189 ± 0.022 | 0.298 ± 0.0093 | 0.31 ± 0.089 |
| TGVPNPSVAVMC | 0.639 ± 0.039 | 0.623 ± 0.023 | 0.457 ± 0.025 | 0.6489 ± 0.005 | 0.446 ± 0.019 | 0.475 ± 0.028 | 0.625 ± 0.0069 | 0.498 ± 0.098 |
| FFLDVMFLLFFF | 0.501 ± 0.062 | – | 0.399 ± 0.036 | 0.524 ± 0.008 | 0.44 ± 0.022 | 0.399 ± 0.021 | 0.513 ± 0.0088 | 0.445 ± 0.037 |
| SVFVVVVLVFWY | 0.221 ± 0.042 | 0.3 ± 0.039 | 0.22 ± 0.029 | 0.33 ± 0.024 | 0.211 ± 0.018 | 0.22 ± 0.029 | 0.316 ± 0.016 | 0.269 ± 0.0066 |
| SFRIWLFRFFFV | 0.6 ± 0.034 | 0.669 ± 0.034 | 0.555 ± 0.047 | 0.651 ± 0.008 | 0.364 ± 0.025 | 0.372 ± 0.016 | 0.541 ± 0.032 | 0.407 ± 0.018 |
| LFPLLCLLLPSL | 0.614 ± 0.091 | 0.664 ± 0.033 | 0.548 ± 0.025 | 0.638 ± 0.0096 | 0.521 ± 0.027 | 0.522 ± 0.02 | 0.628 ± 0.0063 | 0.538 ± 0.065 |
| LVRFYGPLPPFP | 0.688 ± 0.047 | 0.7613 ± 0.0063 | 0.664 ± 0.029 | 0.757 ± 0.011 | 0.656 ± 0.016 | 0.66 ± 0.011 | 0.729 ± 0.011 | 0.7258 ± 0.0068 |
